First the molecules themselves.
B1: CHCHD3 (parent)
chain: YSGAYGASVSDEELKRRVAEELAL
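Also: lentivirally expressed fusions sorted by FACS into six bins by GFP to DsRed ratio, PSI derived from sequencing read proportions per bin multiplied by bin number.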

Variants of B1 are the subject of this data set. The data set is described as follows: protein stability index of a GFP-peptide fusion (GPS, HEK-293T) (PSI 1-6); higher = more stable. The settings on record: c terminus: a fixed tail appended.
As for YSGAYGASVSDEELKRRMAEELAL, the protein stability index worked out at 2.09.

With YSGAYGASVSDEELKRREAEELAL, the protein stability index was determined as 2.59.

Consider YSGAYGASVSDEELKRRIAEELAL, for which the protein stability index stood at 2.86.

As to YSGAYGASVSDEELKRRLAEELAL, the protein stability index was 2.93.

On to YSGAYGASVSDEELKRRCAEELAL, for which the protein stability index worked out at 2.76.

As to YSGAYGASVSDEELKRRAAEELAL, the protein stability index came out at 2.42.

In the case of YSGAYGASVSDEELKRRHAEELAL, the protein stability index worked out at 2.75.

Consider YSGAYGASVSKEELKRRVAEELAL, for which the protein stability index amounted to 2.49.

Turning to YSGAYGASVSGEELKRRVAEELAL, the protein stability index is 2.01.

As for YSGAYGASVSSEELKRRVAEELAL, the protein stability index was 1.86.

As to YSGAYGASVSAEELKRRVAEELAL, the protein stability index was 2.79.

On to YSGAYGASVSDEELKRRVAEEEAL, for which the protein stability index is 2.7.

On to YSGAYGASVSDEELKRRVAEEQAL, for which the protein stability index came out at 2.77.

As to YSGAYGASVSDEELKRRVAEEGAL, the protein stability index came out at 2.33.

For YSGAYGASVSDEELKRRVAEEPAL, the protein stability index stood at 2.47.

Consider YSGAYGASVSDEELKRRVAEETAL, for which the protein stability index is 3.26.

As to YSGAYGASVSDEELYRRVAEELAL, the protein stability index was found to be 2.72.

As to YSGAYGASVSDEELVRRVAEELAL, the protein stability index was found to be 2.65.

For the variant YSGAYGASVSDEELDRRVAEELAL, the protein stability index is 3.38.

Turning to YSGAYGASVSDEELHRRVAEELAL, the protein stability index amounted to 2.69.

For the variant YSGAYGASVSDEELQRRVAEELAL, the protein stability index was found to be 2.83.

Consider YSGAYGASVSDEELPRRVAEELAL, for which the protein stability index is 2.29.

As for YSGAYGASVSDEELWRRVAEELAL, the protein stability index was found to be 2.04.

As for YEGAYGASVSDEELKRRVAEELAL, the protein stability index was found to be 4.78.

Turning to YIGAYGASVSDEELKRRVAEELAL, the protein stability index turned out to be 2.17.

For the variant YSGAYGASVSDEELKRLVAEELAL, the protein stability index stood at 2.76.

With YSGAYGASRSDEELKRRVAEELAL, the protein stability index amounted to 2.19.

As for YSGAYGASTSDEELKRRVAEELAL, the protein stability index came to 2.19.

As for YSGAYGAMVSDEELKRRVAEELAL, the protein stability index was 3.52.

YSGAYGASVSDEELKRRVDEELAL: the protein stability index is 2.84.

For the variant YSGAYGASVSDEELKRRVLEELAL, the protein stability index was found to be 3.05.

For the variant YSGAYGASVSDEELKRRVWEELAL, the protein stability index worked out at 2.69.

For the variant YSGAYGASVSDEELKRRVMEELAL, the protein stability index stood at 3.43.

Take YSGAYGASVSDEELKRRVPEELAL: the protein stability index was 3.04.

Turning to YSGAYGASVSDEELKRRVHEELAL, the protein stability index was 3.24.

Turning to YSGAYGASVSDEELKRRVASELAL, the protein stability index was 3.03.

Take YSGAYGASVSDEELKRRVAHELAL: the protein stability index was 2.59.

On to YSGAYGASVSDSELKRRVAEELAL, for which the protein stability index was 2.09.

On to YSGAYGASVSDHELKRRVAEELAL, for which the protein stability index came out at 2.24.

For the variant YSGAYGASVSDPELKRRVAEELAL, the protein stability index amounted to 3.73.

On to YSGAYGASVSDVELKRRVAEELAL, for which the protein stability index was determined as 2.37.

With YSGAYGASVSDCELKRRVAEELAL, the protein stability index was 2.2.

Take YSGAYGASVSDYELKRRVAEELAL: the protein stability index is 3.02.

Regarding YSGAYNASVSDEELKRRVAEELAL, the protein stability index came out at 3.36.

With YSGAYVASVSDEELKRRVAEELAL, the protein stability index came to 2.48.

With YSGAYQASVSDEELKRRVAEELAL, the protein stability index came to 2.81.

In the case of YSGAYGASVSDEELKRRVAEELAC, the protein stability index was found to be 2.79.

As to YSGAYGASVSDEELKRRVAEELAQ, the protein stability index was determined as 2.63.

In the case of YSGAYGASVSDEELKRRVAEELAE, the protein stability index is 2.92.

Regarding YSGAVGASVSDEELKRRVAEELAL, the protein stability index was found to be 4.95.

As to YSGAYGASVSDEPLKRRVAEELAL, the protein stability index is 2.47.

With YSGAYGASVSDEALKRRVAEELAL, the protein stability index worked out at 2.61.

With YSGAYGASVSDEKLKRRVAEELAL, the protein stability index worked out at 3.04.

On to YSGAYGQSVSDEELKRRVAEELAL, for which the protein stability index worked out at 3.04.

For the variant YSGAYGSSVSDEELKRRVAEELAL, the protein stability index turned out to be 3.48.

For the variant YSGAYGISVSDEELKRRVAEELAL, the protein stability index turned out to be 2.71.

As for YSGAYGTSVSDEELKRRVAEELAL, the protein stability index came out at 2.99.

As for YSGAYGYSVSDEELKRRVAEELAL, the protein stability index was 2.61.

Consider YSGAYGNSVSDEELKRRVAEELAL, for which the protein stability index worked out at 3.61.

As to YSGAYGASVSDEEEKRRVAEELAL, the protein stability index turned out to be 3.48.

Turning to YSGAYGASVSDEETKRRVAEELAL, the protein stability index stood at 3.12.

Regarding YSGAYGASVSDEEYKRRVAEELAL, the protein stability index was found to be 3.56.

Consider YSGAYGASVSDEEVKRRVAEELAL, for which the protein stability index came to 2.63.

Turning to YSGAYGASVYDEELKRRVAEELAL, the protein stability index came out at 2.14.

Turning to YSGAYGASVTDEELKRRVAEELAL, the protein stability index came out at 2.71.

YSGAYGASVKDEELKRRVAEELAL: the protein stability index was determined as 2.46.

For YSGAYGASVGDEELKRRVAEELAL, the protein stability index came to 2.51.

YSGAYGASVSDEELKIRVAEELAL: the protein stability index amounted to 2.11.

YSGAYGASVSDEELKGRVAEELAL: the protein stability index amounted to 2.92.

Consider YSGAYGASVSDEELKERVAEELAL, for which the protein stability index stood at 2.46.

YSGAYGASVSDEELKYRVAEELAL: the protein stability index turned out to be 2.19.

For the variant YSGAYGASVSDEELKWRVAEELAL, the protein stability index was 2.54.

In the case of YSRAYGASVSDEELKRRVAEELAL, the protein stability index was determined as 3.56.

As for YSDAYGASVSDEELKRRVAEELAL, the protein stability index came to 5.41.

For the variant YSCAYGASVSDEELKRRVAEELAL, the protein stability index is 2.73.

On to YSPAYGASVSDEELKRRVAEELAL, for which the protein stability index stood at 3.78.

YSVAYGASVSDEELKRRVAEELAL: the protein stability index worked out at 3.98.

Turning to YSLAYGASVSDEELKRRVAEELAL, the protein stability index is 4.33.

On to YSNAYGASVSDEELKRRVAEELAL, for which the protein stability index is 4.18.

With YSGIYGASVSDEELKRRVAEELAL, the protein stability index is 3.21.

Regarding YSGMYGASVSDEELKRRVAEELAL, the protein stability index came out at 2.59.

As for YSGYYGASVSDEELKRRVAEELAL, the protein stability index was found to be 2.15.

As to YSGHYGASVSDEELKRRVAEELAL, the protein stability index worked out at 2.84.

With YSGNYGASVSDEELKRRVAEELAL, the protein stability index was determined as 2.97.

Consider QSGAYGASVSDEELKRRVAEELAL, for which the protein stability index worked out at 5.07.

On to FSGAYGASVSDEELKRRVAEELAL, for which the protein stability index worked out at 2.71.

As to RSGAYGASVSDEELKRRVAEELAL, the protein stability index came out at 4.63.

Take YSGAYGASVSDEELKRRVAEELWL: the protein stability index is 2.87.

YSGAYGASVSDEELKRRVAEELKL: the protein stability index is 2.71.

Regarding YSGAYGASVSDEELKRRVAEELGL, the protein stability index came out at 3.02.

As to YSGAYGASVSDEELKRRVAEELDL, the protein stability index was found to be 2.76.

Take YSGAYGASVSDEELKRRVAEALAL: the protein stability index came to 2.94.

YSGAYGASVSDEELKRRVAETLAL: the protein stability index worked out at 2.33.

In the case of YSGAYGASVSDEELKRRVAEYLAL, the protein stability index came to 2.45.

Values taken from the supplement of paper PMC10567573.
